Measurements reported in patent US20230256092A1, “COMBINED USE OF ANTI-CCR8 ANTIBODY AND CHEMOTHERAPEUTIC AGENT” (Shionogi & Co., Ltd., priority 2020, published 2023).
Numbering of substitutions follows the chain as printed. Names and notes keep the numbering of the source.

B1: h10A11 (IGKV4-1/IGHV3-73 T31A) (antibody, name in Kabat numbering, V domains shown)
VH: EVQLVESGGGLVQPGGSLKLSCAASGFAFNAYALYWVRQASGKGLEWVGRIRSKSNNYATYYADSVKDRFTISRDDSKNTAYLQMNSLKTEDTAVYYCTRARFYYSDYGYAMDYWGQGTLVTVSS
VL: DIVMTQSPDSLAVSLGERATINCRSSKSLLHSNGNTYLYWYQQKPGQPPKLLIYRMSNLASGVPDRFSGSGSGTDFTLTISSLQAEDVAVYYCMQHLEYPLTFGQGTKLEIKR
B2: h10A11 (IGKV4-1/IGHV3-73 A33V) (antibody, name in Kabat numbering, V domains shown)
VH: B1 VH with A31T, A33V
VL: B1 VL
B3: h10A11 (IGKV4-1/IGHV3-73 A60V) (antibody, name in Kabat numbering, V domains shown)
VH: B1 VH with A31T, A63V
VL: B1 VL
B4: h10A11 (IGKV4-1/IGHV3-73 S62T) (antibody, name in Kabat numbering, V domains shown)
VH: B1 VH with A31T, S65T
VL: B1 VL
B5: h10A11 (IGKV4-1/IGHV3-73 Y58F) (antibody, name in Kabat numbering, V domains shown)
VH: B1 VH with A31T, Y61F
VL: B1 VL
B6: h10A11 (IGKV4-1/IGHV3-73 R52K) (antibody, name in Kabat numbering, V domains shown)
VH: B1 VH with A31T, R52K
VL: B1 VL
B7: h10A11 (IGKV4-1/IGHV3-73 G100cA) (antibody, name in Kabat numbering, V domains shown)
VH: B1 VH with A31T, G109A
VL: B1 VL
B8: h10A11 (IGKV4-1/IGHV3-73 Y98F) (antibody, name in Kabat numbering, V domains shown)
VH: B1 VH with A31T, Y104F
VL: B1 VL
B9: h10A11 (IGKV4-1/IGHV3-73 M100fL) (antibody, name in Kabat numbering, V domains shown)
VH: B1 VH with A31T, M112L
VL: B1 VL
B10: h10A11 (IGKV4-1/IGHV3-73 N53Q) (antibody, name in Kabat numbering, V domains shown)
VH: B1 VH with A31T, N56Q
VL: B1 VL
B11: h10A11 (IGKV4-1/IGHV3-73 Y32F) (antibody, name in Kabat numbering, V domains shown)
VH: B1 VH with A31T, Y32F
VL: B1 VL
B12: h10A11 (IGKV4-1/IGHV3-73 I51L) (antibody, name in Kabat numbering, V domains shown)
VH: B1 VH with A31T, I51L
VL: B1 VL
B13: h10A11 (IGKV4-1/IGHV3-73 R96K) (antibody, name in Kabat numbering, V domains shown)
VH: B1 VH with A31T, R102K
VL: B1 VL
B14: h10A11 (IGKV4-1/IGHV3-73 L34I) (antibody, name in Kabat numbering, V domains shown)
VH: B1 VH with A31T, L34I
VL: B1 VL
B15: h10A11 (IGKV4-1/IGHV3-73 D61E) (antibody, name in Kabat numbering, V domains shown)
VH: B1 VH with A31T, D64E
VL: B1 VL
B16: h10A11 (IGKV4-1/IGHV3-73 K64R) (antibody, name in Kabat numbering, V domains shown)
VH: B1 VH with A31T, K67R
VL: B1 VL
B17: h10A11 (IGKV4-1/IGHV3-73 V63L) (antibody, name in Kabat numbering, V domains shown)
VH: B1 VH with A31T, V66L
VL: B1 VL
B18: h10A11 (IGKV4-1/IGHV3-73 D100aE) (antibody, name in Kabat numbering, V domains shown)
VH: B1 VH with A31T, D107E
VL: B1 VL
B19: h10A11 (IGKV4-1/IGHV3-73 S52cT) (antibody, name in Kabat numbering, V domains shown)
VH: B1 VH with A31T, S55T
VL: B1 VL
B20: h10A11 (IGKV4-1/IGHV3-73 D101E) (antibody, name in Kabat numbering, V domains shown)
VH: B1 VH with A31T, D113E
VL: B1 VL
B21: h10A11 (IGKV4-1/IGHV3-73 Y99F) (antibody, name in Kabat numbering, V domains shown)
VH: B1 VH with A31T, Y105F
VL: B1 VL
B22: h10A11 (IGKV4-1/IGHV3-73 R50K) (antibody, name in Kabat numbering, V domains shown)
VH: B1 VH with A31T, R50K
VL: B1 VL
B23: h10A11 (IGKV4-1/IGHV3-73 Y35F) (antibody, name in Kabat numbering, V domains shown)
VH: B1 VH with A31T, Y35F
VL: B1 VL
B24: h10A11 (IGKV4-1/IGHV3-73 K52bR) (antibody, name in Kabat numbering, V domains shown)
VH: B1 VH with A31T, K54R
VL: B1 VL
B25: h10A11 (IGKV4-1/IGHV3-73 T57S) (antibody, name in Kabat numbering, V domains shown)
VH: B1 VH with A31T, T60S
VL: B1 VL
B26: h10A11 (IGKV4-1/IGHV3-73 S100T) (antibody, name in Kabat numbering, V domains shown)
VH: B1 VH with A31T, S106T
VL: B1 VL
B27: h10A11 (IGKV4-1/IGHV3-73 Y102F) (antibody, name in Kabat numbering, V domains shown)
VH: B1 VH with A31T, Y114F
VL: B1 VL
B28: h10A11 (IGKV4-1/IGHV3-73 F97L) (antibody, name in Kabat numbering, V domains shown)
VH: B1 VH with A31T, F103L
VL: B1 VL
B29: h10A11 (IGKV4-1/IGHV3-73 Y59F) (antibody, name in Kabat numbering, V domains shown)
VH: B1 VH with A31T, Y62F
VL: B1 VL
B30: h10A11 (IGKV4-1/IGHV3-73 Y55F) (antibody, name in Kabat numbering, V domains shown)
VH: B1 VH with A31T, Y58F
VL: B1 VL
B31: h10A11 (IGKV4-1/IGHV3-73 S52aT) (antibody, name in Kabat numbering, V domains shown)
VH: B1 VH with A31T, S53T
VL: B1 VL
B32: h10A11 (IGKV4-1/IGHV3-73 Y100dF) (antibody, name in Kabat numbering, V domains shown)
VH: B1 VH with A31T, Y110F
VL: B1 VL
B33: h10A11 (IGKV4-1/IGHV3-73 A56V) (antibody, name in Kabat numbering, V domains shown)
VH: B1 VH with A31T, A59V
VL: B1 VL
B34: h10A11 (IGKV4-1/IGHV3-73 A100eV) (antibody, name in Kabat numbering, V domains shown)
VH: B1 VH with A31T, A111V
VL: B1 VL
B35: h10A11 (IGKV4-1/IGHV3-73 D65E) (antibody, name in Kabat numbering, V domains shown)
VH: B1 VH with A31T, D68E
VL: B1 VL
B36: h10A11 (IGKV4-1/IGHV3-73 Y100bF) (antibody, name in Kabat numbering, V domains shown)
VH: B1 VH with A31T, Y108F
VL: B1 VL

The binders below were run against human CCR8 (human) (UniProt P51685) (assay: cell-based or functional assay).

Compared with B1, B3 is higher in IC50 ratio (WT IC50/mutant IC50): 0.17 for the first, 0.67 for the second.

Going from B4 to B5, the IC50 ratio (WT IC50/mutant IC50) falls from 1.6 to 0.5.

B7 and B8 are the same in IC50 ratio (WT IC50/mutant IC50): 0.07 for the first, 0.07 for the second.

Going from B9 to B10, the IC50 ratio (WT IC50/mutant IC50) falls from 0.72 to 0.03.

Compared with B11, B12 is lower in IC50 ratio (WT IC50/mutant IC50): 0.44 for the first, 0.22 for the second.

Compared with B14, B15 is lower in IC50 ratio (WT IC50/mutant IC50): 0.43 for the first, 0.25 for the second.

First: B16
Second: B17
The IC50 ratio (WT IC50/mutant IC50) of the first is lower: 0.54 for the first, 0.56 for the second.

First: B18
Second: B19
The IC50 ratio (WT IC50/mutant IC50) of the first is lower: 0.3 for the first, 0.53 for the second.

First: B21
Second: B22
The IC50 ratio (WT IC50/mutant IC50) of the first is higher: 0.8 for the first, 0.12 for the second.

Compared with B24, B25 is higher in IC50 ratio (WT IC50/mutant IC50): 0.47 for the first, 0.49 for the second.

First: B26
Second: B27
The IC50 ratio (WT IC50/mutant IC50) of the first is lower: 0.64 for the first, 0.99 for the second.

Going from B29 to B30, the IC50 ratio (WT IC50/mutant IC50) rises from 0.03 to 0.47.

Going from B31 to B32, the IC50 ratio (WT IC50/mutant IC50) rises from 0.22 to 0.55.

First: B33
Second: B34
The IC50 ratio (WT IC50/mutant IC50) of the first is higher: 0.55 for the first, 0.49 for the second.

Compared with B35, B36 is lower in IC50 ratio (WT IC50/mutant IC50): 1.3 for the first, 0.75 for the second.

B2 and B6 cannot be ordered by IC50 (n.d. = IC50 of the mutant is 10 nM or more): greater than 0.01 µM for the first, greater than 0.01 µM for the second.

B13 and B20 cannot be ordered by IC50 (n.d. = IC50 of the mutant is 10 nM or more): greater than 0.01 µM for the first, greater than 0.01 µM for the second.

B23 and B28 cannot be ordered by IC50 (n.d. = IC50 of the mutant is 10 nM or more): greater than 0.01 µM for the first, greater than 0.01 µM for the second.
